Experimental data as given in the supplement of paper PMC10065799, “High-throughput profiling of sequence recognition by tyrosine kinases and SH2 domains using bacterial peptide display” (eLife, 2023).

Experiments:
EPHB2 = EPHB2 (UniProt P29323); assay: phosphorylation enrichment, bacterial display (enrichment ratio); higher = better substrate or ligand; peptides without Tyr show the background
AncSZ = assay: as above
Fer (mouse) = assay: as above
Hck = Hck (UniProt P08631); assay: as above
Fes = Fes (UniProt P07332); assay: as above
c-Src = assay: as above
EPHB1 = EPHB1 (UniProt P54762); assay: as above
c-Abl (mouse) = assay: as above
Fyn = Fyn (UniProt P06241); assay: as above
MERTK = MERTK (UniProt Q12866); assay: as above
FGFR3 = FGFR3 (UniProt P22607); assay: as above
Jak2 = Jak2 (UniProt O60674); assay: as above
FGFR1 = FGFR1 (UniProt P11362); assay: as above
c-Src SH2 = assay: SH2 binding enrichment of the phosphorylated peptide, bacterial display (enrichment ratio); higher = better substrate or ligand; peptides without Tyr show the background
Grb2 SH2 = Grb2 SH2 (UniProt P62993); assay: as above
SHP2-C SH2 = assay: as above
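Throughout, for SH2 binding enrichment of the phosphorylated peptide, bacterial display: peptide library displayed on the E. coli surface as eCPX fusions, selected cells deep-sequenced, score is each peptide's frequency after selection divided by its frequency in the input.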
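Throughout, for phosphorylation enrichment, bacterial display: 11-residue human phosphosite peptides and single-mutation variants displayed on the E. coli surface, counted by deep sequencing, each peptide's frequency after selection divided by its frequency in the unselected input library; frequency after pTyr selection over input frequency; kinase dosed for 20-30% of maximal phosphorylation in three min.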

Chain of Grb2 SH2 (P62993 whole entry, looked up): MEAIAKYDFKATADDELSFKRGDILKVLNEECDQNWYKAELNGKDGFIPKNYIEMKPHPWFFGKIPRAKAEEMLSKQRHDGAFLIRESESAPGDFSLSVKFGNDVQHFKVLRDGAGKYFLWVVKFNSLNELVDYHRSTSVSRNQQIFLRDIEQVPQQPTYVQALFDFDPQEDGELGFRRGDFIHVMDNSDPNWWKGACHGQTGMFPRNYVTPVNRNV
Chain of FGFR1 (P11362 whole entry, looked up): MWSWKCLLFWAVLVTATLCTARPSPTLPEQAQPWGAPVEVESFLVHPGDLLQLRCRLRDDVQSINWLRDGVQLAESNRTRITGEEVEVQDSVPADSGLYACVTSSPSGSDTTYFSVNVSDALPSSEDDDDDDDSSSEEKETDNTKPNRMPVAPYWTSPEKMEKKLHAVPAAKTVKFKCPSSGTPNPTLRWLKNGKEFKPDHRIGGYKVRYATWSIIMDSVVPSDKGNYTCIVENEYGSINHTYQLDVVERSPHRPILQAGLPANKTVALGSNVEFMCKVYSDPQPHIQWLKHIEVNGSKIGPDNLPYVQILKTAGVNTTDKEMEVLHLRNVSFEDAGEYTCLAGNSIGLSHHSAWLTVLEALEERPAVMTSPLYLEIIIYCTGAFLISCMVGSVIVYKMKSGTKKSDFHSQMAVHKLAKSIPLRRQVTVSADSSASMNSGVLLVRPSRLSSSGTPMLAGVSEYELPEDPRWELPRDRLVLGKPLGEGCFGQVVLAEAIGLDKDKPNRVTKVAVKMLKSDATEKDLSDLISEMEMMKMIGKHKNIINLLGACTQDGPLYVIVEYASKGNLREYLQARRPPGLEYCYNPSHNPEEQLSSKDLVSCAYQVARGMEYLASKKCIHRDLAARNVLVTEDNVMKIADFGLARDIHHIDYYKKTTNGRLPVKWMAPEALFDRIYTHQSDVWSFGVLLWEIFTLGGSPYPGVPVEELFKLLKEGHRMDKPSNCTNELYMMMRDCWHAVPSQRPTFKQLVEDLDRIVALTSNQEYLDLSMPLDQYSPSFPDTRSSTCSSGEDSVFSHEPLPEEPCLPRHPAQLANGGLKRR
Chain of FGFR3 (P22607 whole entry, looked up): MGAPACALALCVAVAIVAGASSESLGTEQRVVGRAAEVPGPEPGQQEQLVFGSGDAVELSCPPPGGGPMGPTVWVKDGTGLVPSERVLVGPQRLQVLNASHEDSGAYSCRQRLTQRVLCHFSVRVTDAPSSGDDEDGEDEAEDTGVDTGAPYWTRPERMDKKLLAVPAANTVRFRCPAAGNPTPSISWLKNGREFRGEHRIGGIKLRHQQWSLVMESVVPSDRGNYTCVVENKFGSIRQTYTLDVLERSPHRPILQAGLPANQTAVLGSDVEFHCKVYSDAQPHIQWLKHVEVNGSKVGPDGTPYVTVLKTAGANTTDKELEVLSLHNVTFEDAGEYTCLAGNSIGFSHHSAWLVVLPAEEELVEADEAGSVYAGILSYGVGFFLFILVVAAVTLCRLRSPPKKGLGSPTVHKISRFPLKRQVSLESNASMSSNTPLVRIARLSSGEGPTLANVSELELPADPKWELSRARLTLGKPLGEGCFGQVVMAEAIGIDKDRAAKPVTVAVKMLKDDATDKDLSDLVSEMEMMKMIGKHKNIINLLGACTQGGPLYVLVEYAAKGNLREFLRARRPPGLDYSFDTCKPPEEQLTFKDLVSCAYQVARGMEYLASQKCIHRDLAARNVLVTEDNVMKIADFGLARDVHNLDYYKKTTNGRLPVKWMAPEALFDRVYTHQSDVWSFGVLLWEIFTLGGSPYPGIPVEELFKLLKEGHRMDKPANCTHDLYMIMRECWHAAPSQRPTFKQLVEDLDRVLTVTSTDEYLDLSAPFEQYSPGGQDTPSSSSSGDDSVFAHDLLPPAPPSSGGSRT
Chain of EPHB1 (P54762 whole entry, looked up): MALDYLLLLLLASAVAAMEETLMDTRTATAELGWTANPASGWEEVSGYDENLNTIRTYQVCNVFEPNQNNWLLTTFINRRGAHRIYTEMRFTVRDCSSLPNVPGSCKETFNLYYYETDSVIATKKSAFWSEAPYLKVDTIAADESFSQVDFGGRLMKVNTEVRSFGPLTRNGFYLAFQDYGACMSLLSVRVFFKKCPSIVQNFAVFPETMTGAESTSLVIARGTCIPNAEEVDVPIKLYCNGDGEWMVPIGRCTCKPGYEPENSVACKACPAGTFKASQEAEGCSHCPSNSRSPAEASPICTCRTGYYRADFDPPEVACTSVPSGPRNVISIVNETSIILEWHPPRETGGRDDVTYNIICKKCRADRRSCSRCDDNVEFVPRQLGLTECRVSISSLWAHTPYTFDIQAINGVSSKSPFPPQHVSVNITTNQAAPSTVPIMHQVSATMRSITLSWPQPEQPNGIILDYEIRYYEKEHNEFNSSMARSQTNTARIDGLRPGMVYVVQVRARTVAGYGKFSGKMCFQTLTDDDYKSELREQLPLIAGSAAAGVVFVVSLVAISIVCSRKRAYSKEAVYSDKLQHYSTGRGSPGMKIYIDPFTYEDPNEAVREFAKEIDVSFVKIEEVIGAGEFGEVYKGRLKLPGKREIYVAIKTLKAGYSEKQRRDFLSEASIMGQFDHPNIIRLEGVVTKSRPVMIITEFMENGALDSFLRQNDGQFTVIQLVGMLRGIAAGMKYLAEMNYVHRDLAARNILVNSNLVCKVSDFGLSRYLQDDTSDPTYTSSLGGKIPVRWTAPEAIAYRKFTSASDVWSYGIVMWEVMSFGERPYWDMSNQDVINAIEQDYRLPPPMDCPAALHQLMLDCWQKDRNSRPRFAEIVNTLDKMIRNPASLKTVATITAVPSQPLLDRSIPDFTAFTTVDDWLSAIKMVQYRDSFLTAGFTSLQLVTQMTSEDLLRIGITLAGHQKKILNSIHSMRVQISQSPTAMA
Chain of Hck (P08631 whole entry, looked up): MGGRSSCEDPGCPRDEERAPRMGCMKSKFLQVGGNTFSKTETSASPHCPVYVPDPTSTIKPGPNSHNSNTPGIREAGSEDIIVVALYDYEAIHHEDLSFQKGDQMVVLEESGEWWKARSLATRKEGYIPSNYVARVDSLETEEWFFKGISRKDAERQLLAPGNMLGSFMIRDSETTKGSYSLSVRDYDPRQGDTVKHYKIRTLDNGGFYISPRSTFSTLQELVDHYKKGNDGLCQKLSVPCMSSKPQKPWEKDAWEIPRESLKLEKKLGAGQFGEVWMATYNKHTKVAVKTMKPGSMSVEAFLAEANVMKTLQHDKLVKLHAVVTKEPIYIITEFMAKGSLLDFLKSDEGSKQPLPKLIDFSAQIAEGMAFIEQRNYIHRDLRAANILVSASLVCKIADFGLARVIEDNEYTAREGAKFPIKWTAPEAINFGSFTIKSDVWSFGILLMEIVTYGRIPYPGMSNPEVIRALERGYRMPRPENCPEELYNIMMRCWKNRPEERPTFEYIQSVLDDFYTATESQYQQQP
Chain of Fyn (P06241 whole entry, looked up): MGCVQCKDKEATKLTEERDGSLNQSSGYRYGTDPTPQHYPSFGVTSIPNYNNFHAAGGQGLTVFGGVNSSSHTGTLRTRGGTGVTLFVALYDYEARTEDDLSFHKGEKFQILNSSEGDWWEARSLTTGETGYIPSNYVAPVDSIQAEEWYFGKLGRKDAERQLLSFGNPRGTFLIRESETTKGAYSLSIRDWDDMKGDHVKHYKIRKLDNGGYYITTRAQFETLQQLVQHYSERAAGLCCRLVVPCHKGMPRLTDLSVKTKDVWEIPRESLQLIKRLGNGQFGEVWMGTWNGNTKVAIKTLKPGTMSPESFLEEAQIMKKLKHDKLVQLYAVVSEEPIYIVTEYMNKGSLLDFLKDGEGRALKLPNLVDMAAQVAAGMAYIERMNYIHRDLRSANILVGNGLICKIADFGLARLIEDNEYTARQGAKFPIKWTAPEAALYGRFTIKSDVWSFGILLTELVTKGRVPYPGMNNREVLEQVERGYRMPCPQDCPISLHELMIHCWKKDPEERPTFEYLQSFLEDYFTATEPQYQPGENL
Chain of Jak2 (O60674 whole entry, looked up): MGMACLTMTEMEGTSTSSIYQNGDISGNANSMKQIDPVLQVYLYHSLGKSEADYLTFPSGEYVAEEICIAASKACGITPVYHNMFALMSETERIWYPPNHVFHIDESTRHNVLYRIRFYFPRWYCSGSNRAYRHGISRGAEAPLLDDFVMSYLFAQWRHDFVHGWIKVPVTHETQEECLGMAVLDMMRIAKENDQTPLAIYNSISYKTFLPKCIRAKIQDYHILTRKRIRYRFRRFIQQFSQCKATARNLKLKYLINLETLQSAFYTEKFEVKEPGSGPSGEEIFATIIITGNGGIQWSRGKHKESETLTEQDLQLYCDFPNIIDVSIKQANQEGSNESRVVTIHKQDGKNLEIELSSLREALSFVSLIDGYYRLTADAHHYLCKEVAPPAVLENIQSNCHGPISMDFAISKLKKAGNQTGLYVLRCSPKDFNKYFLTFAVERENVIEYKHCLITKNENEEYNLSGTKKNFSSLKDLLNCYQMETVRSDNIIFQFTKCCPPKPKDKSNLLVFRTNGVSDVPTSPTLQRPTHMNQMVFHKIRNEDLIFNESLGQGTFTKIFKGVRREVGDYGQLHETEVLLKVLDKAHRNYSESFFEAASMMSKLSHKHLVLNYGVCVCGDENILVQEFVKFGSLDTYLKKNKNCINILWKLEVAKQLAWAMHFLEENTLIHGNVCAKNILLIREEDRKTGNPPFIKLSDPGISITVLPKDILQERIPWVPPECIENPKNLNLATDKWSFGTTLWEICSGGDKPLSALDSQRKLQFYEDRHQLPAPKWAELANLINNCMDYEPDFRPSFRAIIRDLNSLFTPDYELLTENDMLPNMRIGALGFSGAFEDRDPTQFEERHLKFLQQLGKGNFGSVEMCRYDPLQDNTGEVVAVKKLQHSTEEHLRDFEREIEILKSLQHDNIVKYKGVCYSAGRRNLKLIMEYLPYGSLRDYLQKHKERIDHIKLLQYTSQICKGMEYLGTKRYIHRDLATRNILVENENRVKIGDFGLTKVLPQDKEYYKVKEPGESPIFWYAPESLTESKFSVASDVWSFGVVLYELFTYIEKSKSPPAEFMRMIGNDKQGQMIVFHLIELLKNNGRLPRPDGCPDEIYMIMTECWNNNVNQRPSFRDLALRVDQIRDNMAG

| Sequence | phosphorylation enrichment (EPHB2) | phosphorylation enrichment (AncSZ) | phosphorylation enrichment (Fer (mouse)) | phosphorylation enrichment (Hck) | phosphorylation enrichment (Fes) | phosphorylation enrichment (c-Src) | phosphorylation enrichment (EPHB1) | phosphorylation enrichment (c-Abl (mouse)) | phosphorylation enrichment (Fyn) | phosphorylation enrichment (MERTK) | phosphorylation enrichment (FGFR3) | phosphorylation enrichment (Jak2) | phosphorylation enrichment (FGFR1) | SH2 binding enrichment (c-Src SH2) | SH2 binding enrichment (Grb2 SH2) | SH2 binding enrichment (SHP2-C SH2) |
| --- | --- | --- | --- | --- | --- | --- | --- | --- | --- | --- | --- | --- | --- | --- | --- | --- |
| IRDLKYTIENP [SND1_Y178] | 0.522 | 1.21 | 0.541 | 0.507 | 1.38 | 0.47 | 0.521 | 0.785 | 0.456 | 0.407 | 0.807 | 1.19 | 0.776 | 0.438 | 0.748 | 0.762 |
| IRKDLYSNNVL [ACTC1_Y296_A297S] | 0.476 | 0.506 | 0.414 | 0.419 | 0.553 | 0.322 | 0.497 | 0.444 | 0.415 | 0.518 | 0.422 | 0.471 | 0.425 | 0.611 | 0.836 | 0.835 |
| IRRSSYEDSSL [HNF4A_Y144_T139I] | 0.543 | 0.705 | 0.526 | 0.53 | 0.758 | 0.591 | 0.444 | 0.824 | 0.481 | 0.485 | 0.487 | 0.65 | 0.411 | 0.47 | 0.749 | 0.588 |
| ISGGGYRACPA [FGB_Y71_R74C] | 0.404 | 0.915 | 0.495 | 0.432 | 0.818 | 0.361 | 0.51 | 0.58 | 0.44 | 0.409 | 0.52 | 0.61 | 0.469 | 0.533 | 0.958 | 0.715 |
| ISHVAYLVLGK [TRRAP_Y892_R893L] | 0.5 | 0.95 | 0.505 | 0.485 | 1.07 | 0.454 | 0.805 | 0.588 | 0.507 | 0.53 | 0.75 | 0.996 | 0.535 | 1.1 | 1.47 | 3.41 |
| ISKTWYSAEQF [CD207_Y217_P213S] | 1.8 | 0.793 | 0.521 | 0.481 | 0.837 | 0.522 | 1.84 | 0.585 | 0.532 | 7.68 | 0.757 | 0.604 | 0.605 | 0.689 | 0.822 | 0.781 |
| IVEELYAIPPD [PEAK1_Y797_S792I] | 13.3 | 3.84 | 6.14 | 4.27 | 1.26 | 3.23 | 4.29 | 10 | 3.48 | 8.66 | 6.02 | 1.27 | 6.62 | 0.564 | 0.88 | 0.68 |
| IVKAYYVHARA [AIPL1_Y268_R270H] | 0.533 | 0.857 | 0.574 | 0.595 | 0.978 | 0.432 | 0.567 | 0.663 | 0.424 | 0.572 | 0.633 | 0.818 | 0.538 | 0.823 | 1.25 | 1.95 |
| IVRSLYEDQED [VHL_Y185_L188Q] | 0.621 | 1.39 | 0.523 | 0.581 | 1.36 | 0.59 | 0.67 | 0.826 | 0.477 | 0.482 | 0.742 | 1.3 | 0.67 | 1.09 | 0.985 | 0.993 |
| IYLGAYDRFLP [SLC22A5_Y486_V481I] | 4.21 | 1.72 | 2.42 | 6.82 | 1.18 | 5.43 | 2.18 | 2.56 | 5 | 6.6 | 0.94 | 1.16 | 0.918 | 0.726 | 0.979 | 2.29 |
| KAIMTYVSSFY [ACTN4_Y260] | 0.666 | 0.976 | 0.505 | 0.554 | 1.05 | 0.612 | 0.644 | 0.755 | 0.536 | 0.424 | 0.719 | 1.04 | 0.489 | 0.564 | 0.86 | 0.987 |
| KANEYYPVVLI [ADAMTS18_Y765] | 3.11 | 1.97 | 2.12 | 0.693 | 0.813 | 0.655 | 3.64 | 1.6 | 0.572 | 0.541 | 9.02 | 2.79 | 11.2 | 0.404 | 0.683 | 0.625 |
| KATKGYLDDPT [G6PD_Y322_E317K] | 0.603 | 0.73 | 0.329 | 0.417 | 0.639 | 0.395 | 0.431 | 0.451 | 0.405 | 0.443 | 0.484 | 0.755 | 0.529 | 0.489 | 0.888 | 0.84 |
| KAWTIYRPEDS [ZBP1_Y165] | 0.512 | 1.41 | 0.449 | 0.482 | 1.15 | 0.566 | 0.461 | 0.757 | 0.494 | 0.478 | 0.643 | 1.17 | 0.539 | 0.488 | 0.746 | 0.719 |
| KDAGDYKCKAK [LRIT3_Y326] | 0.312 | 0.542 | 0.312 | 0.55 | 0.618 | 0.384 | 0.408 | 0.654 | 0.386 | 0.332 | 0.517 | 0.579 | 0.448 | 0.83 | 1.4 | 0.767 |
| KDFTIHNPNLL [VANGL1_Y290_Y290H] | 0.366 | 0.698 | 0.353 | 0.392 | 0.829 | 0.439 | 0.516 | 0.574 | 0.369 | 0.453 | 0.561 | 0.654 | 0.424 | 0.444 | 0.812 | 0.553 |
| KDFTIYNPNLL [VANGL1_Y290] | 0.42 | 0.722 | 0.599 | 1.58 | 0.835 | 1.2 | 0.419 | 0.71 | 0.787 | 0.478 | 0.518 | 0.815 | 0.434 | 0.511 | 0.703 | 0.537 |

| Sequence | phosphorylation enrichment (EPHB2) | phosphorylation enrichment (AncSZ) | phosphorylation enrichment (Fer (mouse)) | phosphorylation enrichment (Hck) | phosphorylation enrichment (Fes) | phosphorylation enrichment (c-Src) | phosphorylation enrichment (EPHB1) | phosphorylation enrichment (c-Abl (mouse)) | phosphorylation enrichment (Fyn) | phosphorylation enrichment (MERTK) | phosphorylation enrichment (FGFR3) | phosphorylation enrichment (Jak2) | phosphorylation enrichment (FGFR1) | SH2 binding enrichment (c-Src SH2) | SH2 binding enrichment (Grb2 SH2) | SH2 binding enrichment (SHP2-C SH2) |
| --- | --- | --- | --- | --- | --- | --- | --- | --- | --- | --- | --- | --- | --- | --- | --- | --- |
| KDGIGYISAAE [CALM2_Y100_N98I] | 0.424 | 0.635 | 0.464 | 0.454 | 0.763 | 0.427 | 0.393 | 0.557 | 0.466 | 0.476 | 0.517 | 0.589 | 0.476 | 0.598 | 1.07 | 0.686 |
| KDHLDYKFQPR [SOX9_Y172_P170L_YF] | 0.478 | 0.73 | 0.392 | 0.352 | 1.02 | 0.504 | 0.475 | 0.642 | 0.431 | 0.409 | 0.531 | 0.922 | 0.498 | 0.47 | 0.823 | 0.685 |
| KDHPDYEYQPR [SOX9_Y172_K173E] | 0.958 | 2.59 | 0.465 | 0.588 | 0.961 | 0.474 | 2.21 | 0.665 | 0.667 | 0.432 | 0.771 | 0.811 | 0.844 | 0.586 | 1.19 | 0.689 |
| KDHPDYKFPPR [SOX10_Y171_Q174P_YF] | 0.444 | 0.883 | 0.376 | 0.382 | 0.685 | 0.434 | 0.387 | 0.52 | 0.415 | 0.393 | 0.762 | 0.564 | 0.656 | 0.553 | 1 | 0.783 |
| KDIENYIQDGK [RAD50_Y964] | 0.515 | 0.923 | 0.416 | 0.45 | 0.965 | 0.461 | 0.504 | 0.639 | 0.433 | 0.464 | 0.616 | 0.82 | 0.543 | 0.526 | 0.979 | 0.687 |
| KDLPNYNWNSF [KISS1_Y112] | 0.63 | 0.904 | 0.604 | 0.416 | 0.855 | 0.507 | 0.505 | 0.639 | 0.446 | 0.491 | 0.521 | 0.767 | 0.432 | 0.459 | 0.769 | 0.441 |
| KEINDYVEKGT [SERPINA1_Y184_Q180E] | 0.56 | 1.21 | 0.492 | 0.515 | 0.954 | 0.517 | 0.513 | 0.621 | 0.514 | 0.439 | 0.632 | 0.75 | 0.558 | 0.461 | 0.981 | 0.568 |
| KELALYDENWF [RPS19_Y48_P47L] | 11.5 | 1.5 | 7.67 | 1.41 | 1.43 | 1.39 | 8.19 | 1.06 | 1.02 | 7.19 | 0.947 | 1.44 | 0.729 | 0.456 | 0.834 | 0.611 |
| KGPGEYVNIEF [IRS1_Y896_S892G] | 0.639 | 0.958 | 0.475 | 0.498 | 0.79 | 0.484 | 0.708 | 0.493 | 0.58 | 0.442 | 1.14 | 0.691 | 1.43 | 5.64 | 4.8 | 1.22 |
| KHCEDYVFSYN [DSC1_Y846_C848F] | 0.719 | 2.06 | 0.511 | 0.521 | 1.31 | 1.77 | 0.855 | 0.778 | 0.576 | 0.489 | 1.98 | 1.08 | 2.41 | 0.552 | 0.806 | 0.595 |
| KKARAYRPGIE [FLNA_Y287_G288R] | 0.417 | 0.499 | 0.31 | 0.323 | 0.45 | 0.449 | 0.289 | 0.455 | 0.338 | 0.371 | 0.357 | 0.565 | 0.299 | 0.469 | 0.761 | 0.606 |
| KKCTTYIDCDL [ASPA_Y64_R63T] | 0.474 | 0.975 | 0.713 | 0.491 | 1.14 | 0.415 | 0.48 | 0.601 | 0.42 | 0.391 | 0.665 | 0.81 | 0.571 | 0.703 | 0.883 | 0.826 |
| KKDGPYDVVVL [PARK7_Y67_E64D] | 0.53 | 0.906 | 3.37 | 0.507 | 0.9 | 0.569 | 0.991 | 0.629 | 0.562 | 0.589 | 0.602 | 0.608 | 0.449 | 1.07 | 0.855 | 0.895 |
| KKFPDYIQSAM [SGMS2_Y59_I62S_YF] | 0.424 | 0.621 | 0.332 | 0.482 | 0.65 | 0.521 | 0.348 | 0.472 | 0.401 | 0.364 | 0.471 | 0.512 | 0.479 | 0.532 | 0.821 | 0.694 |
| KKGIVYVFNGR [ITGAV_Y404_I405V] | 0.449 | 0.756 | 0.441 | 0.486 | 0.677 | 0.395 | 0.458 | 0.443 | 0.477 | 0.48 | 0.538 | 0.73 | 0.527 | 1.32 | 2.05 | 1.91 |
| KLFYIYTSGTT [SLC27A4_Y245] | 0.727 | 1.24 | 0.556 | 0.506 | 1.37 | 0.575 | 0.61 | 0.767 | 0.455 | 0.5 | 0.755 | 1.51 | 0.449 | 0.53 | 0.943 | 1.34 |
